Data taken from the supplement of paper PMC10567573.
± gives the standard deviation.

Assay: protein stability index of a GFP-peptide fusion (GPS, HEK-293T) (PSI 1-6); higher = more stable
Conditions: c terminus: a fixed tail appended
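Note: 24-mer peptide tiles fused after GFP, lentivirally expressed, FACS-sorted into six equal bins by GFP/DsRed ratio, decoded by Illumina sequencing, PSI is the read-weighted mean bin number.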

| Sequence | protein stability index (treatment: DMSO) | protein stability index (treatment: MLN4924 1 uM, 8 h) |
| --- | --- | --- |
| GVSKVGLRKIIDFIYTAKLSLNMD [KLHL13] | 2.81 ± 0.75 | 2.83 ± 0.63 |
| SPLHAAAEAGHVDICHMLVQFCRL [EHMT1] | 2.25 ± 0.069 | 2.5 ± 0.37 |
| SPAPLDTCPSSSTASSISSSGGSS [DYRK1B] | 5.33 ± 0.16 | 5.35 ± 0.088 |
| NEKIYELRVMETKPDKAVSIIECD [UFD1] | 4.33 ± 0.11 | 4.28 ± 0.16 |
| GPKESLPVIAAPSMWTRPQIKDFK [ACBD3] | 3.8 ± 0.29 | 3.79 ± 0.16 |
| PWARGCGMFTFLSSVTAAVSGLLV [SLC2A12] | 2.54 ± 0.3 | 2.57 ± 0.21 |
| NVIDRMKESSPSGSKSQRYSGAYG [CHCHD3] | 4.13 ± 0.4 | 4.13 ± 0.15 |
| NCPEFPPPDRTLGCWATDAAPAAG [RSPH3] | 4.4 ± 0.4 | 4.47 ± 0.3 |
| WFQNKRSKFKKLMKQGGAALEGSA [DLX1] | 2.62 ± 0.4 | 3.01 ± 0.36 |
| PAPKSTYECRCIGEEKEMWNFGEK [TIA1] | 3.86 ± 0.23 | 3.85 ± 0.33 |
| LPLALVTWVPMFLSTLLAPYQALR [SOAT2] | 2.93 ± 0.6 | 2.95 ± 0.35 |
| ADLENEDIFPELDDILYHVKGMQR [DLC1] | 3.7 ± 0.13 | 3.72 ± 0.34 |
| SWYPKANNQDFIPFTKKRVGVDRA [ZC2HC1C] | 3.07 ± 0.33 | 2.94 ± 0.15 |
| IRLYGLQAGRLLWEQELYSQLVYS [WAS] | 3.11 ± 0.55 | 2.7 ± 0.38 |
| LLDKTCDQVMEFSWSALWNITDET [ZER1] | 2.37 ± 0.28 | 2.35 ± 0.34 |
| ACDSKLTFDAITTIRGEVMFFKDR [MMP1] | 2.45 ± 0.24 | 2.83 ± 0.19 |
| AFAEMLRFGDRMFYKDWWNSTSYS [SOAT1] | 2.52 ± 0.36 | 2.58 ± 0.54 |
| PAKAANRTPPKSPGDPSKDRAAKR [TPPP] | 5.22 ± 0.38 | 5.21 ± 0.32 |
| YSSGSYDSIKTEVSGCPEDLTVGR [NOL4L] | 4.49 ± 0.23 | 4.44 ± 0.23 |
| KRKTFNKVLGHVNNILISAVLPTA [GDAP1] | 2.49 ± 0.14 | 2.42 ± 0.076 |
| VELIPEKKGLFLKHVEYEVSSQRF [SNX8] | 2.31 ± 0.27 | 2.46 ± 0.19 |
| INQEELRALEEVEMKLQKNFLTQR [C10orf62] | 3.66 ± 0.39 | 3.83 ± 0.34 |
| MTLAANHELMLRFKDEYKSENIKL [CCDC89] | 3.44 ± 0.17 | 3.72 ± 0.25 |

| Sequence | protein stability index (treatment: DMSO) | protein stability index (treatment: MLN4924 1 uM, 8 h) |
| --- | --- | --- |
| FVVGNCLQIASDSHQYDRIYCGAG [PCMTD1] | 2.45 ± 0.38 | 2.62 ± 1 |
| FIYDCDPFTRRYYKEKFGITDLPR [EFHC1] | 2.35 ± 0.37 | 2.15 ± 0.26 |
| KQYDQQFPDGDDEFDSPHEDIVFE [STX11] | 5.18 ± 0.14 | 5.11 ± 0.2 |
| VTVTDVDIVFSKIKGKSCRTITFE [TPPP] | 2.23 ± 0.24 | 2.1 ± 0.28 |
| PLKAQNDLDISRIKRGNTTLESTD [P2RY14] | 5 ± 0.11 | 5.24 ± 0.24 |
| CQDQNVPVENFFVKCNGALINTSD [SDE2] | 3.3 ± 0.23 | 3.27 ± 0.47 |
| QDLLDVIRIKLDPCHPTVKNWRNF [EDARADD] | 2.27 ± 0.75 | 2.35 ± 0.34 |
| GKAYRFLFGFSAVSIMYLVLVLAV [JAGN1] | 2.22 ± 0.1 | 2.12 ± 0.35 |
| REWYYGNVTRHQAECALNERGVEG [NCK2] | 3.33 ± 0.12 | 3.68 ± 0.16 |
| APLIQPCHSESGKSRLVQLPPVAV [PCMTD2] | 3.13 ± 0.21 | 3.29 ± 0.38 |
| VQRHNSFSPNSPQFNVSGPGLLEE [NECAB1] | 4.03 ± 0.21 | 4.33 ± 0.32 |
| QVDPGTDLEPGVLMSAQTITSETT [EPB41L3] | 5.21 ± 0.32 | 5.16 ± 0.13 |
| KESGQEGVDSMAEEGTSDSNTGSE [SMARCE1] | 5.01 ± 0.61 |  |
| EKNRKDAEDWFFSKTEELNREVAT [KRT17] | 4.5 ± 0.14 | 4.71 ± 0.27 |
| GRFKLSIPHTHLLATLDPLALDRE [WDR88] | 2.76 ± 0.24 | 2.76 ± 0.34 |
| PPHVLISRPSAPFTEASMMMSLTK [ESR2] | 3.48 ± 0.084 | 3.44 ± 0.18 |
| NCRLSEGDVMHLSQSPSVSQLSVL [PRAME] | 2.29 ± 0.63 | 2.37 ± 0.065 |
| GPSHPDTSYYIRYRGAVYADSGNF [FEM1C] | 2.11 ± 0.45 | 2.54 ± 0.35 |
| ESTFMYLTLDLPTAPLYKDEKEQL [USP39] | 3.4 ± 0.2 | 3.55 ± 0.15 |
| PEGSLSQTMAGSSPNTPQPVPEQS [FAM104A] | 5.47 ± 0.14 | 5.45 ± 0.12 |
| LPETLNSPLLETFSDLQVYSYRRL [SLC22A15] | 2.4 ± 0.1 | 2.81 ± 0.27 |
| HDESPGNNVVDISVPPTTDGQKPN [RAB11B] | 5.46 ± 0.3 | 5.57 ± 0.12 |
